Laboratory results: PMC7337323 (Nature structural & molecular biology, 2020)

B1: wild-type H. neapolitanus Rubisco (CbbL8S8) (complex, Halothiobacillus neapolitanus)
chain 1: MAVKKYSAGVKEYRQTYWMPEYTPLDSDILACFKITPQPGVDREEAAAAVAAESSTGTWTTVWTDLLTDMDYYKGRAYRIEDVPGDDAAFYAFIAYPIDLFEEGSVVNVFTSLVGNVFGFKAVRGLRLEDVRFPLAYVKTCGGPPHGIQVERDKMNKYGRPLLGCTIKPKLGLSAKNYGRAVYECLRGGLDFTKDDENINSQPFMRWRDRFLFVQDATETAEAQTGERKGHYLNVTAPTPEEMYKRAEFAKEIGAPIIMHDYITGGFTANTGLAKWCQDNGVLLHIHRAMHAVIDRNPNHGIHFRVLTKILRLSGGDHLHTGTVVGKLEGDRASTLGWIDLLRESFIPEDRSRGIFFDQDWGSMPGVFAVASGGIHVWHMPALVNIFGDDSVLQFGGGTLGHPWGNAAGAAANRVALEACVEARNQGRDIEKEGKEILTAAAQHSPELKIAMETWKEIKFEFDTVDKLDTQNR
chain 2: MAEMQDYKQSLKYETFSYLPPMNAERIRAQIKYAIAQGWSPGIEHVEVKNSMNQYWYMWKLPFFGEQNVDNVLAEIEACRSAYPTHQVKLVAYDNYAQSLGLAFVVYRGN

What was measured:
[1] = biological target: N*-polyPro (N* consensus peptide on a polyproline II helix); experiment: BLI
[2] = biological target: T1, full-length CsoS2 (H. neapolitanus) (Halothiobacillus neapolitanus, UniProt O85041 1-869); experiment: native gel or EMSA
T1 sequence (looked up): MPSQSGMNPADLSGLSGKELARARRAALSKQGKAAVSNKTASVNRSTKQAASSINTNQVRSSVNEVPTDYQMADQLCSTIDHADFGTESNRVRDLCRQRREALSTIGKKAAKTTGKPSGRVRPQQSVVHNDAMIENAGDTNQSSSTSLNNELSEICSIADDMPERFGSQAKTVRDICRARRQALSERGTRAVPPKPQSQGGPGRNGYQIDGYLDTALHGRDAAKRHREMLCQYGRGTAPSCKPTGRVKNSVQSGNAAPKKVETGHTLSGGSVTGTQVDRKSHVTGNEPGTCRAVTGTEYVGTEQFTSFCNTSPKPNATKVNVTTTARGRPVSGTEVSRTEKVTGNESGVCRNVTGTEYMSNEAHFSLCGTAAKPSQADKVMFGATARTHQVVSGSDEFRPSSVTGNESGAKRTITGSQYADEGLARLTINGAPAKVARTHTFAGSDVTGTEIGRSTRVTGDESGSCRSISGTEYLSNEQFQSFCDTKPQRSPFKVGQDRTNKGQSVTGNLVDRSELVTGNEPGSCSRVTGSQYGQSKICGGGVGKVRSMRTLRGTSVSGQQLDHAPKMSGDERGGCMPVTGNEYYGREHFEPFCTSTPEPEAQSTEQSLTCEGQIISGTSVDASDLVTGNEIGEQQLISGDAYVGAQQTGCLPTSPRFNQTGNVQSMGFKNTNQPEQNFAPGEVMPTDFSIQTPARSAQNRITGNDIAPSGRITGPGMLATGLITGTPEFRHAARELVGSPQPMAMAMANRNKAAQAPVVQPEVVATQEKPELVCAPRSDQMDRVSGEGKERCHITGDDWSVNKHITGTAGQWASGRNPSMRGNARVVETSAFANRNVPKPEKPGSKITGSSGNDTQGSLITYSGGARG

[3] = biological target: B1; experiment: MST
crystal structure = biological target: the molecule itself; experiment: crystal structure

wild-type H. neapolitanus Rubisco (CbbL8S8) (from UniProt O85040 1-473; P45686 1-110) (complex)
Kd [1]: 0.1 µM

B1
binding result [2]: binds

B2: [N1]-GFP (single CsoS2 N-peptide repeat N1 fused to GFP) (domain or fragment)
chain: PSQSGMNPADLSGLSGKELARARRAALSKQGKAAVSNKTASVNRSTKQAASSINTNQVRSSVNEVPTDYQMADQLCSTIDHADFGTESNRV
modifications: CsoS2 part of Supplementary Table 1 construct; His tag, TEV site, linker, sfGFP and StrepII left out
Kd [3]: > 1000 µM

B3: CbbL (Rubisco large subunit, H. neapolitanus) (natural protein, Halothiobacillus neapolitanus)
chain: MAVKKYSAGVKEYRQTYWMPEYTPLDSDILACFKITPQPGVDREEAAAAVAAESSTGTWTTVWTDLLTDMDYYKGRAYRIEDVPGDDAAFYAFIAYPIDLFEEGSVVNVFTSLVGNVFGFKAVRGLRLEDVRFPLAYVKTCGGPPHGIQVERDKMNKYGRPLLGCTIKPKLGLSAKNYGRAVYECLRGGLDFTKDDENINSQPFMRWRDRFLFVQDATETAEAQTGERKGHYLNVTAPTPEEMYKRAEFAKEIGAPIIMHDYITGGFTANTGLAKWCQDNGVLLHIHRAMHAVIDRNPNHGIHFRVLTKILRLSGGDHLHTGTVVGKLEGDRASTLGWIDLLRESFIPEDRSRGIFFDQDWGSMPGVFAVASGGIHVWHMPALVNIFGDDSVLQFGGGTLGHPWGNAAGAAANRVALEACVEARNQGRDIEKEGKEILTAAAQHSPELKIAMETWKEIKFEFDTVDKLDTQNR
binding result (crystal structure): binds
